The values below come from patent US20060073152A1 (Genentech, published 2006).

Where two headings read alike, the source gives them in different places. Positions of bridges follow the written chain, without caps; N, C: chain ends. No end group written: not given here.

Experiment [1] has as its target T1, human serum albumin (human, UniProt P02768 25-609).
T1 construct: also called Human SA; HuSA
The experiment in a line: phage binding.

The target in experiment [2] is T2, rabbit serum albumin (rabbit, UniProt P49065 25-608).
T2 construct: also called Rabbit SA; BuSA
The experiment in a line: phage binding.

The target of experiment [3] is T3, rat serum albumin (rat, UniProt P02770 25-608).
T3 construct: also called Rat SA; RSA
The experiment in a line: phage binding.

Experiment [4] concerns the target T2, rabbit serum albumin. The experiment can be described thus: peptide competition for albumin.
In experiment [5] the target is T3, rat serum albumin. The experiment in a line: peptide competition for albumin.
Experiment [6] concerns the target T4, mouse serum albumin (mouse, UniProt P07724 25-608).
T4 construct: also called Mouse SA; MuSA
The experiment in a line: peptide competition for albumin.

The target in experiment [7] is T2, rabbit serum albumin. The experiment can be described thus: phage binding. This is another data set of the same source.
For experiment [8], the target named is T3, rat serum albumin. The experiment can be described thus: phage binding. The source holds these as a separate data set.
Experiment [9] has as its target T2, rabbit serum albumin. The experiment can be described thus: peptide competition; head prints RSA, read as rabbit.
The target in experiment [10] is T1, human serum albumin. The experiment can be described thus: phage binding. This is another data set of the same source.

T3 sequence (P02770 25-608 limits assumed): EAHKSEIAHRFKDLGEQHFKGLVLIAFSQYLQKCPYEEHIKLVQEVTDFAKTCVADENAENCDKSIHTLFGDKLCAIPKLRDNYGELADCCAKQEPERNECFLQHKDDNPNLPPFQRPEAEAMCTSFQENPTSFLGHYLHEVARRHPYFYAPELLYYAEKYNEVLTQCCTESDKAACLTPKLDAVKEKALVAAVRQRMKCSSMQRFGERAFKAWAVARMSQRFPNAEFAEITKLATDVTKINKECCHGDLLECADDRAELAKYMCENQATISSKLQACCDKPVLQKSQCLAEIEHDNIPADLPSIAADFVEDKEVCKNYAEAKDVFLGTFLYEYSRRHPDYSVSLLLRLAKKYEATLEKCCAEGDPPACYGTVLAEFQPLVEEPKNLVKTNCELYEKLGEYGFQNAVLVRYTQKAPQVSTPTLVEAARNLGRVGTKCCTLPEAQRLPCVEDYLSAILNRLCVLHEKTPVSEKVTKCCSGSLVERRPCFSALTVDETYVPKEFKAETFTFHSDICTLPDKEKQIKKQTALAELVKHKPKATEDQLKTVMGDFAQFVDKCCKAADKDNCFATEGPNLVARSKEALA
T2 sequence (P49065 25-608 limits assumed): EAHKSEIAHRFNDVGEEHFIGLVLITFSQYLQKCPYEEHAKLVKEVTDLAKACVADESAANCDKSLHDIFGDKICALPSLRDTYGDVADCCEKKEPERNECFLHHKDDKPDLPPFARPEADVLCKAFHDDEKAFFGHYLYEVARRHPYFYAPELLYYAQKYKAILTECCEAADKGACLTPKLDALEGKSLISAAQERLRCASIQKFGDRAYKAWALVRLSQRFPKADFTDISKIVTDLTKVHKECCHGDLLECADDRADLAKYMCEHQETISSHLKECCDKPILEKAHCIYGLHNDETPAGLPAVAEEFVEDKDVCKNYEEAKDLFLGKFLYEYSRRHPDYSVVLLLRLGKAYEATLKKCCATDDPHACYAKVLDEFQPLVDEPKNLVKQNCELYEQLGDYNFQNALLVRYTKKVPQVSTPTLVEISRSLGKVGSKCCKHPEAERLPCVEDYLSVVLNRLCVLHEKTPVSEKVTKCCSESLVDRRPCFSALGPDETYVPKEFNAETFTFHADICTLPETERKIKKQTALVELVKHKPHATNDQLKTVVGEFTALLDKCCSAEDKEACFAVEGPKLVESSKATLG
T4 sequence (P07724 25-608 limits assumed): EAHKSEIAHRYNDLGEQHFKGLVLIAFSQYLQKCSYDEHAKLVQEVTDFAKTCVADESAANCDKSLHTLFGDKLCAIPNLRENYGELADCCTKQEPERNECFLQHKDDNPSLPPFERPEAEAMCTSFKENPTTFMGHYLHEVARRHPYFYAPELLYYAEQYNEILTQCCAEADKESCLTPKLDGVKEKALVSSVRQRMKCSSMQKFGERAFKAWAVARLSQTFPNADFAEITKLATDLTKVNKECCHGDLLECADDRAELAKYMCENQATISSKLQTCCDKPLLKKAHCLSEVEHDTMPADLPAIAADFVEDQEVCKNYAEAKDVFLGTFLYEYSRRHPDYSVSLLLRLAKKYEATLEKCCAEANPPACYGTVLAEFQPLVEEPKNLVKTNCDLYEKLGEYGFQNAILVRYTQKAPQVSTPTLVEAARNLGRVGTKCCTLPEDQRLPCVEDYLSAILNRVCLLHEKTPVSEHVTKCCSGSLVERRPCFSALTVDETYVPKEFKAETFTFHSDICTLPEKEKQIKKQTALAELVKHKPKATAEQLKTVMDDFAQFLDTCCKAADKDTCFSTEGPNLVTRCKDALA

B1: RB-B6 (peptide)
peptide: QWQMENVCLPKWGCLWEELD
modifications: not fully specified (bridges); cysteine pairing not given here; also: phage-displayed
notes: on phage
Regarding B1, the binding result in [1], in [2] and in experiment [3] was “binds” each time.

B2: RB-B11 (peptide)
peptide: QWQVMDICLPRWGCLWADEY
modifications: not fully specified (bridges); cysteine pairing not given here; also: phage-displayed
notes: on phage
Turning to B2, the binding result in experiment [1], in experiment [2] and in experiment [3] was “binds” each time.

B3: SA05 (peptide)
peptide: MEDICLPRWGCLWED-NH2
modifications: not fully specified (bridges); cysteine pairing not given here
notes: free peptide
With B3, the concentration for half-maximal inhibition (IC50) (commonly the concentration that inhibits the measured activity by half) is 804 nM in experiment [4], 161 nM in experiment [5] and 6 nM in experiment [6].

B4: RB-B9 (peptide)
peptide: QMHMMDICLPKWGCLWGDTS
modifications: not fully specified (bridges); cysteine pairing not given here
notes: on phage
Consider B4, for which the binding result in [7] and in experiment [8] was “binds” throughout.

B5: SA18 (peptide)
peptide: ICLPRWGCLW-NH2
modifications: not fully specified (bridges); printed as ICLPRWGCLWNH2; cysteine pairing not given here
notes: free peptide
B5 yielded an IC50 in experiment [9] of 125000 nM.

B6: RB-B3 (peptide)
peptide: QSYMEDICLPRWGCLSDDAS
modifications: not fully specified (bridges); cysteine pairing not given here; also: phage-displayed
notes: on phage
In the case of B6, the binding result in experiment [7] and in experiment [8] was “binds” each time.

B7: RB-H1 (peptide)
peptide: QRHPEDICLPRWGCLWGDDD
notes: on phage
B7: the binding result in experiment [1], in experiment [2] and in experiment [3] was “binds” each time.

B8: SA06 (peptide)
peptide: QRLMEDICLPRWGCLWEDDF-NH2
modifications: disulfide 8-14 (inferred)
Take B8: the IC50 in experiment [4] is 128 nM; in experiment [5] it was 68 nM; in experiment [6], 8 nM.

B9: SA32 (peptide)
peptide: Ac-EDICLPRWGCLW-NH2
modifications: disulfide 4-10 (inferred)
notes: free peptide
For B9, the 50% inhibitory concentration (IC50) in experiment [9] worked out at 2170 nM.

B10: RB-B16 (peptide)
peptide: HRLVEDICLPRWGCLWGNDF
modifications: not fully specified (bridges); cysteine pairing not given here; also: phage-displayed
notes: on phage
B10: the binding result in experiment [10], in [7] and in [8] was “binds” each time.

B11: BA-B44 (peptide)
peptide: GEDWCDSTLLAFDLCGEGAR
notes: on phage
Turning to B11, the binding result in experiment [7] is recorded as “binds”.

B12: SA10 (peptide)
peptide: Ac-RLMEDICLPRWGCLWEDD-NH2
modifications: cysteine pairing not given here
notes: free peptide
Regarding B12, the figures for the IC50 in experiment [4] and in [5] were 86 nM and 77 nM, respectively.

B13: SA11 (peptide)
peptide: Ac-MEDICLPRWGCLWEDD-NH2
modifications: not fully specified (bridges); cysteine pairing not given here
notes: free peptide
As to B13, the IC50 was determined as 1210 nM in [4], 232 nM in [5] and 17 nM in experiment [6].

B14: SA09 (peptide)
peptide: Ac-EDICLPRWGCLWEDD-NH2
modifications: not fully specified (bridges); cysteine pairing not given here
notes: free peptide
As for B14, the IC50 in experiment [4] is 1690 nM; in experiment [5], 258 nM; in [6] it was 6 nM.

B15: SA34 (peptide)
peptide: Ac-DICLPRWGCL-NH2
modifications: disulfide 3-9 (inferred)
notes: free peptide
On to B15, for which the IC50 in [9] stood at 28200 nM.

B16: RB-B12 (peptide)
peptide: QGLIGDICLPRWGCLWGDSV
notes: on phage; also called RB-R8
For the molecule B16, the binding result in experiment [10], in [7] and in experiment [8] was “binds” in each case.

B17: HC-R10 (peptide)
peptide: QRDMGDICLPRWGCLWEDGV
modifications: not fully specified (bridges); cysteine pairing not given here; also: phage-displayed
notes: on phage
B17: the binding result in experiment [10], in [7] and in experiment [8] was “binds” throughout.

B18: RB-H6 (peptide)
peptide: NRQMEDICLPQWGCLWGDDF
notes: on phage
B18: the binding result in [1], in experiment [2] and in [3] was “binds” each time.

B19: SA19 (peptide)
peptide: DICLPRWGCL-NH2
modifications: not fully specified (bridges); printed as DICLPRWGCLNH2; cysteine pairing not given here
notes: free peptide
In turn, B19 showed an IC50 in [9] of 24500 nM.

B20: SA12 (peptide)
peptide: Ac-MEDICLPRWGCLWED-NH2
modifications: not fully specified (bridges); cysteine pairing not given here
notes: free peptide
In the case of B20, the IC50 in experiment [4] is 1760 nM; in experiment [5] it was 205 nM; in experiment [6] it was 13 nM.

B21: RB-B8 (peptide)
peptide: HSQMEDICLPRWGCLWGDEL
modifications: not fully specified (bridges); cysteine pairing not given here
notes: on phage
Regarding B21, the binding result in experiment [1], in experiment [2] and in experiment [3] was “binds” in each case.

B22: SA04 (peptide)
peptide: DICLPRWGCLW-NH2
modifications: not fully specified (bridges); cysteine pairing not given here
notes: free peptide
Turning to B22, the 50% inhibitory concentration (IC50) in experiment [4] was 8540 nM; in experiment [5] it was 787 nM; in experiment [6] it was 40 nM; in experiment [9], 8540 nM.

B23: RB-R16 (peptide)
peptide: LIFMEDVCLPQWGCLWEDGV
notes: on phage
As for B23, the binding result in experiment [10], in experiment [7] and in experiment [8] was “binds” each time.

B24: RB-B5 (peptide)
peptide: QWHMEDICLPQWGCLWGDVL
notes: on phage
Take B24: the binding result in experiment [1], in experiment [2] and in experiment [3] was “binds” each time.

B25: RB-B4 (peptide)
peptide: LWAMEDICLPKWGCLWEDDF
notes: on phage
Turning to B25, the binding result in experiment [1], in [2] and in experiment [3] was “binds” in each case.

B26: BA-B39 (peptide)
peptide: MELWCDSTLMAYDLCGDFNM
notes: on phage
As to B26, the binding result in experiment [7] is listed as “binds”.

B27: SA07 (peptide)
peptide: QGLIGDICLPRWGCLWGDSV-NH2
modifications: not fully specified (bridges); cysteine pairing not given here
notes: free peptide
As to B27, the results for the IC50 in [4], in [5] and in experiment [6] were 30 nM, 35 nM and 6 nM, respectively.

B28: RB-B10 (peptide)
peptide: QGDFWDICLPRWGCLSGEGY
notes: on phage
As for B28, the binding result in [7] and in experiment [8] was “binds” throughout.

B29: RB-B1 (peptide)
peptide: RWQTEDVCLPKWGCLFGDGV
modifications: not fully specified (bridges); cysteine pairing not given here; also: phage-displayed
notes: on phage
Turning to B29, the binding result in experiment [7] and in experiment [8] was “binds” throughout.

B30: BA-B37 (peptide)
peptide: GENWCDWVLLAYDLCGEDNT
notes: on phage
Take B30: the binding result in experiment [7] is on record as “binds”.

B31: RB-B7 (peptide)
peptide: LRLMDNICLPRWGCLWDDGF
modifications: not fully specified (bridges); cysteine pairing not given here
notes: on phage
In the case of B31, the binding result in experiment [1], in experiment [2] and in [3] was “binds” in each case.

B32: RB-B14 (peptide)
peptide: LRIFEDICLPKWGCLWGEGF
notes: on phage
As for B32, the binding result in experiment [7] and in [8] was “binds” each time.
